Laboratory results from the supplement of paper PMC10567573.

B1: SCNN1D (parent)
chain: FLGHHSFSVRPGTEATISIREDEV

Variants of: B1
Experiment: protein stability index of a GFP-peptide fusion (GPS, HEK-293T) (PSI 1-6); higher = more stable
Settings: c terminus: a fixed tail appended
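Note: lentivirally expressed fusions sorted by FACS into six bins by GFP to DsRed ratio, PSI derived from sequencing read proportions per bin multiplied by bin number.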

Variant	protein stability index
FLGHHSFSVRPGTYATISIREDEV [E14Y]	1.19
FLGHHSFSVRPGTCATISIREDEV [E14C]	1.65
FLGHHSFSVRPGTIATISIREDEV [E14I]	1.77
FLGHHSFSVRPGTQATISIREDEV [E14Q]	2.13
FLGHHSFSVRPGTKATISIREDEV [E14K]	1.93
FLGHHSFSVRPGTTATISIREDEV [E14T]	2.24
FLGHHSFSVRPGTMATISIREDEV [E14M]	1.25
FLGHHSFSVRPGTFATISIREDEV [E14F]	1.37
FLGHHSFSVRPGTGATISIREDEV [E14G]	2.31
FLGHHSFSVRPGTVATISIREDEV [E14V]	2.18
FLGHHSFSVRPGTHATISIREDEV [E14H]	2.11
FLGHHSFSVRPGTPATISIREDEV [E14P]	1.76
FLGHHSFSVRPGTNATISIREDEV [E14N]	1.82
FLGHHSFSVRPGTAATISIREDEV [E14A]	1.92
FLGHHSFSVRPGTDATISIREDEV [E14D]	1.13
FLGHHSFSVRPGTRATISIREDEV [E14R]	2.1
FLGHHSFSVRPGTLATISIREDEV [E14L]	1.92
FLGHHSFSVRPGTSATISIREDEV [E14S]	1.77
FLGHHSFSVRPGTEATESIREDEV [I17E]	2.1
FLGHHSFSVRPGTEATCSIREDEV [I17C]	1.96
FLGHHSFSVRPGTEATASIREDEV [I17A]	2.44
FLGHHSFSVRPGTEATMSIREDEV [I17M]	1.75
FLGHHSFSVRPGTEATDSIREDEV [I17D]	2.12
FLGHHSFSVRPGTEATGSIREDEV [I17G]	2.38

Variant	protein stability index
FLGHHSFSVRPGTEATLSIREDEV [I17L]	1.62
FLGHHSFSVRPGTEATKSIREDEV [I17K]	2.32
FLGHHSFSVRPGTEATFSIREDEV [I17F]	1.36
FLGHHSFSVRPGTEATHSIREDEV [I17H]	2.23
FLGHHSFSVRPGTEAGISIREDEV [T16G]	2.1
FLGHHSFSVRPGTEAKISIREDEV [T16K]	1.75
FLGHHSFSVRPGTEAPISIREDEV [T16P]	1.85
FLGHHSFSVRPGTEANISIREDEV [T16N]	2.05
FLGHHSFSVRPGTEAAISIREDEV [T16A]	2.37
FLGHHSFSVRPGTEADISIREDEV [T16D]	3.29
FLGHHSFSVRPGTEAWISIREDEV [T16W]	1.4
FLGHHSFSVRPGTEAQISIREDEV [T16Q]	2.8
FLGHHSFSVRPGTEAVISIREDEV [T16V]	2.25
FLGHHSFSVRPGTEACISIREDEV [T16C]	1.29
FLGHHSFSVRPGTEASISIREDEV [T16S]	2.57
FLGHHSFSVRPGTEARISIREDEV [T16R]	2.46
FLGHHSFSVRPGTEAEISIREDEV [T16E]	1.62
FLGHHSFSVRPGTEAHISIREDEV [T16H]	1.87
FLGHHSFSVRPGTEAIISIREDEV [T16I]	2.29
FLGHHSFSVRPGTEALISIREDEV [T16L]	1.49
FLGHHSFSVRPGTEAMISIREDEV [T16M]	2.62
FLGHHSFSVRPGTEAYISIREDEV [T16Y]	2.23
FLGHHSFSVRPGTEAFISIREDEV [T16F]	2.04
FLGHHSFSVRPGTEPTISIREDEV [A15P]	2.04

Variant	protein stability index
FLGHHSFSVRPGTENTISIREDEV [A15N]	2
FLGHHSFSVRPGTEETISIREDEV [A15E]	1.93
FLGHHSFSVRPGTEQTISIREDEV [A15Q]	1.96
FLGHHSFSVRPGTETTISIREDEV [A15T]	2.31
FLGHHSFSVRPGTECTISIREDEV [A15C]	2.34
FLGHHSFSVRPGTEHTISIREDEV [A15H]	1.67
FLGHHSFSVRPGTEMTISIREDEV [A15M]	1.58
FLGHHSFSVRPGTEGTISIREDEV [A15G]	2.01
FLGHHSFSVRPGTELTISIREDEV [A15L]	2.66
FLGHHSFSVRPGTEFTISIREDEV [A15F]	2.62
FLGHHSFSVRPGTEYTISIREDEV [A15Y]	1.71
FLGHHSFSVRPGTEWTISIREDEV [A15W]	3.05
FLGHHSFSVRPGTEVTISIREDEV [A15V]	1.47
FLGHHSFSVRPGTEDTISIREDEV [A15D]	2.08
FLGHHSFSVRPGTERTISIREDEV [A15R]	1.88
FLGHHSFSVRPGTEKTISIREDEV [A15K]	1.91
FLGHHSFSVRPGTESTISIREDEV [A15S]	2.63
FLGHHSFSVRPGTEITISIREDEV [A15I]	1.95
FLGHHSFSVRPGKEATISIREDEV [T13K]	2.37
FLGHHSFSVRPGREATISIREDEV [T13R]	1.7
FLGHHSFSVRPGGEATISIREDEV [T13G]	1.25
FLGHHSFSVRPGMEATISIREDEV [T13M]	1.73
FLGHHSFSVRPGFEATISIREDEV [T13F]	1.91
FLGHHSFSVRPGPEATISIREDEV [T13P]	1.88

Variant	protein stability index
FLGHHSFSVRPGEEATISIREDEV [T13E]	2.09
FLGHHSFSVRPGLEATISIREDEV [T13L]	2.71
FLGHHSFSVRPGYEATISIREDEV [T13Y]	1.36
FLGHHSFSVRPGQEATISIREDEV [T13Q]	1.97
FLGHHSFSVRPGCEATISIREDEV [T13C]	1.58
FLGHHSFSVRPGVEATISIREDEV [T13V]	1.49
FLGHHSFSVRPGNEATISIREDEV [T13N]	1.49
FLGHHSFSVRPGHEATISIREDEV [T13H]	2.03
FLGHHSFSVRPGIEATISIREDEV [T13I]	1.44
FLGHHSFSVRPGAEATISIREDEV [T13A]	1.77
FLGHHSFSVRPGSEATISIREDEV [T13S]	1.18
FLGHHSFSVRPGDEATISIREDEV [T13D]	1.63
FLGHHSFSVHPGTEATISIREDEV [R10H]	2.3
FLGHHSFSVNPGTEATISIREDEV [R10N]	1.53
FLGHHSFSVDPGTEATISIREDEV [R10D]	2.77
FLGHHSFSVFPGTEATISIREDEV [R10F]	1.66
FLGHHSFSVSPGTEATISIREDEV [R10S]	2.35
FLGHHSFSVLPGTEATISIREDEV [R10L]	1.41
FLGHHSFSVIPGTEATISIREDEV [R10I]	1.9
FLGHHSFSVAPGTEATISIREDEV [R10A]	1.56
FLGHHSFSVGPGTEATISIREDEV [R10G]	2.04
FLGHHSFSVWPGTEATISIREDEV [R10W]	1.63
FLGHHSFSVEPGTEATISIREDEV [R10E]	2.94
FLGHHSFSVQPGTEATISIREDEV [R10Q]	2.49

Variant	protein stability index
FLGHHSFSVYPGTEATISIREDEV [R10Y]	1.63
FLGHHSFSVMPGTEATISIREDEV [R10M]	2.03
FLGHHSFSVCPGTEATISIREDEV [R10C]	2.52
FLGHHSFSVKPGTEATISIREDEV [R10K]	2.33
FLGHHSFSVTPGTEATISIREDEV [R10T]	1.92
FLGHHSFSVPPGTEATISIREDEV [R10P]	2.11
FLGHHSFSVVPGTEATISIREDEV [R10V]	2.41
FLGHHSFSVRFGTEATISIREDEV [P11F]	1.47
FLGHHSFSVRDGTEATISIREDEV [P11D]	1.88
FLGHHSFSVRTGTEATISIREDEV [P11T]	1.59
FLGHHSFSVRWGTEATISIREDEV [P11W]	1.97
FLGHHSFSVRYGTEATISIREDEV [P11Y]	1.99
FLGHHSFSVRRGTEATISIREDEV [P11R]	2.02
FLGHHSFSVRQGTEATISIREDEV [P11Q]	1.99
FLGHHSFSVRIGTEATISIREDEV [P11I]	2.14
FLGHHSFSVRGGTEATISIREDEV [P11G]	1.64
FLGHHSFSVRVGTEATISIREDEV [P11V]	1.53
FLGHHSFSVREGTEATISIREDEV [P11E]	2.14
FLGHHSFSVRNGTEATISIREDEV [P11N]	1.98
FLGHHSFSVRAGTEATISIREDEV [P11A]	1.53
FLGHHSFSVRMGTEATISIREDEV [P11M]	1.25
FLGHHSFSVRLGTEATISIREDEV [P11L]	1.82
FLGHHSFSVRHGTEATISIREDEV [P11H]	1.7
FLGHHSFSVRSGTEATISIREDEV [P11S]	1.72

Variant	protein stability index
FLGHHSFSVRKGTEATISIREDEV [P11K]	1.93
FLGHHSFKVRPGTEATISIREDEV [S8K]	1.57
FLGHHSFGVRPGTEATISIREDEV [S8G]	2.43
FLGHHSFFVRPGTEATISIREDEV [S8F]	1.37
FLGHHSFMVRPGTEATISIREDEV [S8M]	1.75
FLGHHSFWVRPGTEATISIREDEV [S8W]	2.68
FLGHHSFVVRPGTEATISIREDEV [S8V]	1.8
FLGHHSFHVRPGTEATISIREDEV [S8H]	2.12
FLGHHSFLVRPGTEATISIREDEV [S8L]	1.65
FLGHHSFTVRPGTEATISIREDEV [S8T]	1.62
FLGHHSFCVRPGTEATISIREDEV [S8C]	4.76
FLGHHSFQVRPGTEATISIREDEV [S8Q]	1.78
FLGHHSFNVRPGTEATISIREDEV [S8N]	2.4
FLGHHSFYVRPGTEATISIREDEV [S8Y]	1.86
FLGHHSFDVRPGTEATISIREDEV [S8D]	3.02
FLGHHSFEVRPGTEATISIREDEV [S8E]	2.48
FLGHHSFIVRPGTEATISIREDEV [S8I]	2.04
FLGHHSFRVRPGTEATISIREDEV [S8R]	1.96
FLGHHSFAVRPGTEATISIREDEV [S8A]	3.59
FLGHHSFPVRPGTEATISIREDEV [S8P]	3.49
FLGHHSFSARPGTEATISIREDEV [V9A]	2.36
FLGHHSFSYRPGTEATISIREDEV [V9Y]	2.84
FLGHHSFSKRPGTEATISIREDEV [V9K]	2.83
FLGHHSFSMRPGTEATISIREDEV [V9M]	2.42

Variant	protein stability index
FLGHHSFSGRPGTEATISIREDEV [V9G]	3.44
FLGHHSFSERPGTEATISIREDEV [V9E]	2.83
FLGHHSFSRRPGTEATISIREDEV [V9R]	3.8
FLGHHSFSHRPGTEATISIREDEV [V9H]	3.09
FLGHHSFSFRPGTEATISIREDEV [V9F]	2.33
FLGHHSFSLRPGTEATISIREDEV [V9L]	2.15
FLGHHSFSDRPGTEATISIREDEV [V9D]	3.54
FLGHHSFSPRPGTEATISIREDEV [V9P]	2.18
FLGHHSFSIRPGTEATISIREDEV [V9I]	2.26
FLGHHSFSTRPGTEATISIREDEV [V9T]	2.29
FLGHHSFSNRPGTEATISIREDEV [V9N]	2.6
FLGHHSFSSRPGTEATISIREDEV [V9S]	2.12
FLGHHSFSWRPGTEATISIREDEV [V9W]	1.64
FLGHHSFSCRPGTEATISIREDEV [V9C]	2.08
FLGHHSFSQRPGTEATISIREDEV [V9Q]	2.86
FLGHHSFSVRPMTEATISIREDEV [G12M]	1.85
FLGHHSFSVRPSTEATISIREDEV [G12S]	1.55
FLGHHSFSVRPATEATISIREDEV [G12A]	2.2
FLGHHSFSVRPNTEATISIREDEV [G12N]	2.05
FLGHHSFSVRPWTEATISIREDEV [G12W]	1.42
FLGHHSFSVRPETEATISIREDEV [G12E]	1.88
FLGHHSFSVRPKTEATISIREDEV [G12K]	1.71
FLGHHSFSVRPPTEATISIREDEV [G12P]	1.83
FLGHHSFSVRPTTEATISIREDEV [G12T]	1.67

Variant	protein stability index
FLGHHSFSVRPFTEATISIREDEV [G12F]	2.69
FLGHHSFSVRPCTEATISIREDEV [G12C]	2.24
FLGHHSFSVRPITEATISIREDEV [G12I]	1.54
FLGHHSFSVRPVTEATISIREDEV [G12V]	1.57
FLGHHSFSVRPDTEATISIREDEV [G12D]	2.35
FLGHHSFSVRPRTEATISIREDEV [G12R]	1.46
FLGHHSFSVRPQTEATISIREDEV [G12Q]	1.56
FLGHHSFSVRPHTEATISIREDEV [G12H]	1.81
FLGHHSFSVRPYTEATISIREDEV [G12Y]	1.15
FLGHHSFSVRPLTEATISIREDEV [G12L]	1.71
FLGHHSRSVRPGTEATISIREDEV [F7R]	3.94
FLGHHSVSVRPGTEATISIREDEV [F7V]	3.88
FLGHHSTSVRPGTEATISIREDEV [F7T]	4.81
FLGHHSYSVRPGTEATISIREDEV [F7Y]	2.38
FLGHHSPSVRPGTEATISIREDEV [F7P]	4.44
FLGHHSSSVRPGTEATISIREDEV [F7S]	4.1
FLGHHSNSVRPGTEATISIREDEV [F7N]	4.38
FLGHHSQSVRPGTEATISIREDEV [F7Q]	3.98
FLGHHSMSVRPGTEATISIREDEV [F7M]	4.18
FLGHHSWSVRPGTEATISIREDEV [F7W]	3.24
